test system: Saccharomyces cerevisiae; assay: transcriptional activation domain activity (GFP:mCherry ratio, weighted mean of sorted bins, harmonized to initial dataset scale) (arbitrary fluorescence ratio units); higher = stronger transcriptional activation; conditions: beta-estradiol 1 µM; induction time 4 h
Summary of the method: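 Activation activity, the read-weighted mean of bin median fluorescence averaged across barcodes, was linearly mapped onto the scale of the initial dataset. It was measured for barcoded protein tiles fused to an estradiol-inducible synthetic transcription factor at URA3 in GFP-reporter yeast diploids. Cultures diluted 1:5 into SC with 1 uM beta-estradiol were held 4 hours at 30 °C, sorted into 8 bins by GFP:mCherry ratio, and barcode-sequenced, and tiles under 50 reads were discarded.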

| Sequence | transcriptional activation domain activity |
| --- | --- |
| GILVLLLVYSNLVLLIYHPPTSKRPLDHLFIHVPIRLFLILPLSLMFPYSLLY | 43900 |
| GIMILCCTLVVLTRLMGHRILPYTYFTSCLLMQIDFILGMIWDMDPFKVRRFC | 44600 |
| GIPDELAWMLCLDGLDCIDGETYNLPLLRQFMELFPSLPLTSLLTAYFLYMDI | 119000 |
| GIPVKAYPPNGVYPFSGLSCYAMIVSFLHSELDMVYMTFRELYARYFHHLHTI | 70500 |
| GISHNQLSNDDVLLNPSDTGFSPTDNGDGDDGEPHSTLRMAWLLTRVLEHAPL | 46600 |
| GIVLLLNAWKGQKIGFVSKDLNLVYSCIRIANEAEERHIAAGRYVDFMNLLLH | 45500 |
| GIYAFGKMYFIPYLLSNHWVVMLTYLQHSDPTIPVYRRGQWSFVRGALSTIDR | 41800 |
| GKADKKETANGKSTDSKTAGGNANSTARKRKTSNASVQDQKAAKATTTAASRK | 27600 |
| GKAKASKTAGAGLAKASKAPKVPKAGGKGAKASKGAKAPKASKAAGAAGAKAS | 28400 |
| GKDAEAADKPIEGKDAGDVEMNDAPEKEPEAEAAKPKGRGGRPKKVVPAAAAP | 23900 |
| GKEKKDGEAAAPAAANHAPAEASAPAQTSSRPEGGERGRGRGRGHKGERGGAG | 43200 |
| GKEKNHGRGERNGERTKAKGEGRGEEDSQRRGRRRESKERGRRRGGEPEETKG | 49600 |
| GKEVVDIQEAEVEEGGVKREKVRVVFKDGTDAVGDLVVGCDGARSRARECIVG | 45700 |
| GKFLTVLLALSVMGSVAATSVAIFSFNNIRSNVYSFYSISLNMQILMPVLVYV | 41200 |
| GKGEEEVEEEERLYDRLVIANGHYRVPFVPPLPGLAAWQRAGRATHAAWYRAA | 59800 |
| GKGEKDSKDNEKGEGEKKGENRRGRRRGGRGRGGGGDKDKENNKDGGGGRGEK | 30500 |
| GKGHYVTFSFVMADIILGMSAPMLRICVCHCVPQRQRKSNIILLQIILLFYER | 54500 |
| GKGIGGFNCVAASLGVVQVGMQWSCFAVILLLFLIYFPSASSLGSPATTPTGT | 36400 |
| GKGKPRDNAKEEEKEEERKIPQAIVVSGLHHASTAAQLALSSALREGEIEMDG | 15000 |
| GKGKRKAVSEEEDKDEEGDEEPVKAKGKGKGKGKRKVVAKKVKRRAPAAADTS | < 6570 |
| GKISKDYHHVPSLASISSLQSSQSLDQNFSIPQSPPLSSMSFNFLTGNINETN | 43600 |

| Sequence | transcriptional activation domain activity |
| --- | --- |
| GKKDQEALKEGESSSESASASASKSSSSTKSSKGSKSSSAAAAEASDDGKPKK | 38600 |
| GKKGPGGRKGPGGRKGPGGRGGRAGGPKGRGGKGGKGMRPGAGAPPPPPPIAA | 52600 |
| GKKGSSGAKKGGKKGSSTGAKEEVAKKPSIEKSGEKKSEGGEKKENDEKKNDK | 37900 |
| GKKKGKRGKGKGKRGRGKGRGEREGWQGKAAGKEGAGKKGAGEGEQGKGSRGK | 44300 |
| GKKKKAKKAEVRKARAKASDRAKAKAKAAGPSRASKKAAAPARAKSGDGGKDK | 21600 |
| GKKRKSTGAKSREQPKAKRIAKAKTKTGAFGAGRKGATAGHAKGRAAAAGPKA | 59000 |
| GKKRRRSSSSSSSSSGSSSSGSSSSSGSDSESDSSSDSSSSSSNSSRSSGSRS | 24900 |
| GKKSSGKKSGSSKKTKKDKKAEKDKTAADEKEKEEVKEKETGAEGEKTPEHSE | 37700 |
| GKPAASAFGGGSSAFGAGSGAFGGGGGGGPSAFGAPASKPSAFGTGGAFGGGA | 51100 |
| GKPGGGEAKTGERKGEGRGGRGKGGPGGKKDGPPPGEGKGAVVASAASTSATP | 34700 |
| GKPRGYAFVEYEREKDMKAAYKEGDGMKITGRRVVVDVERGRTVKGWKPRRLG | 36700 |
| GKPRKRLAQACLTCREKKIKCDPGSPKCAQCQKSHRICRGTGSVASSGGPVGV | 19000 |
| GKPRKRLAQACLTCREKKIKCEPGYPKCHQCAKSQRVCRGGLNQASIGNASGE | 36100 |
| GKPVALRTSTRVKDVSGDGIVTLESGEQISADVVVGADGVHSRTRYAIPGSAG | 52400 |
| GKPVIKISSFAPKLTVISSKQRPRRLSIKGSDGKDYQFLLKGHEDLRQDERVM | 58400 |
| GKRAGAKGKKEASKKKKSQGSSRKGSGKGKKGNGGKGKNGGGKDKGKKSGKKG | 21800 |
| GKRAREESDEENDEEEEAEGEGAEKEGEEEEEEEEVKKPAAKRARTAKGAAAK | 13500 |
| GKRARGVGKLRPSVVLYNELHKDGEGVGEVARRDLVGSSKGKGRSGVDTLLVV | 59800 |
| GKRGSRGRGRGKGGKKKGKGREGAEEGEGGSRGRGEGGGKTGEGGRESRRRGE | 37600 |
| GKRNSGAGGASAKAKARGAGKKPAAAGGKAGKKNVRAAKSKGKAAGARTKPAA | 43900 |
| GKRRFLNGFLSCLLPTCGISDPLLRYAACFTVIRCCFRSNVLVPAMMRALLET | 45100 |

| Sequence | transcriptional activation domain activity |
| --- | --- |
| GKSKEERERDEEVIRKWSGKPTKVMLQVFDDCSLSFTRPAKLMYRSIAHFSLW | 65100 |
| GKTYTLEQDEDVLDTWFSSGLWPFSTLGWPNQTHDLENLFPTDVLETGWDILF | 126000 |
| GKVFILLRIWFFRQRSLSLYRTLLSSYLVERSPLFTSTMGVFGLDRKLLVKTA | 62500 |
| GKVPRRTERRKLWDDVKALRKELIDILLFSPLSLADIHFRYRKREGGVVNYYL | 21800 |
| GLAELAAALDDSDVQYAYARVEYANDAESKRVKFVLIVWIGSGTKVMRKGRAG | 42200 |
| GLAIIRWQRGFRDYDNVTFKRFDYEVGMSILGWAFHYFPFFLMARQLFLHHYL | 52400 |
| GLANYLKPVHDQKLIIFIEILILLWAVLVYSTVQVARGATGFYLPTVLYNIYL | 49300 |
| GLCLLYISGLVCATIVCYIEFTMHQSALLNATRLTPFMIAALCLTLFLNIIAT | 57200 |
| GLCRSGELLLPGAQYHRNPAVRKAWPGIFKWTRRNAMDVIATVWFWLTRADGL | 51100 |
| GLCYCHSIKLRHLLIPMEKLYLMGLILVQCYNGVLHSMLFGARYEFLPLMLTS | 71000 |
| GLDCDKQHVRECPDFAERGTCATRGCKLPHVIRANRNRKAPAPAAQKSTSTST | 25500 |
| GLEFVEPWTELIEQRYMQCGDGDNNNFENLYNLFVNSNNINNDINNSRPITRK | 81200 |
| GLFASCWQRFAQAYRPCIGLTRIFVLCLLEVVLWLKGLEILFWFFLWCWCTTT | 50200 |
| GLFLVFGFWYIGVCSYGFLGFSLSLGGVYIRFFLYYHYQRILRLISLPFPVWF | 59700 |
| GLFRVAGRVLHVNRLNDDFDAGADYDLRKATPADLDPHVVASVLKSYLRTLRG | 27100 |
| GLGFFFSFSLFNFFLHASSLYLLFLVTLLDLHYIFLVLSLTLFRVYVCFISAP | 43400 |
| GLGKEGESYIVAMGAVSGGIIIYRRIEGGAGLVEVVRNSTAVARTTAVMIALE | 42400 |
| GLHFERRLFHLLFSTVCISICFCLLVFNLLIQNYMKKADQKEGMAAFAEKRKP | 28000 |
| GLKLSPSSSGLLSTNESNAIEQFLDNLISQDMMSSNASMNSESHLHIRSPKKQ | 68400 |
